T1: DHD9 chain b
T1 construct: also called 9b; 9_b
T1 chain: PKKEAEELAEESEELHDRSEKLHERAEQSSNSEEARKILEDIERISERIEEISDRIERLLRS

T2: DHDSC_9-13-37 chain 13b
T2 chain: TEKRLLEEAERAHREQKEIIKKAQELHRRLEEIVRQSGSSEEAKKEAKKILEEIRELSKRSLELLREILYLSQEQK

T3: DHD37_1:234 chain b
T3 construct: Single-helix monomer of the backbone-permuted 3+1 heterodimer
T3 chain: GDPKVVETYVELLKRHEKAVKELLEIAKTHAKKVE

T4: DHD39 chain b
T4 construct: In the NOR gate it was fused to the Gal4 DBD; also called 10′; DHD_39 b
T4 chain: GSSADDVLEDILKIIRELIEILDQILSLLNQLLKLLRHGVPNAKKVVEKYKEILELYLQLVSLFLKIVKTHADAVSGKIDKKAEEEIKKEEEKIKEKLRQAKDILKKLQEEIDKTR

T5: 2′-1′_6-residue_linker
T5 construct: also called 1′-2′; 1′-2′ with a 6-residue linker
T5 chain: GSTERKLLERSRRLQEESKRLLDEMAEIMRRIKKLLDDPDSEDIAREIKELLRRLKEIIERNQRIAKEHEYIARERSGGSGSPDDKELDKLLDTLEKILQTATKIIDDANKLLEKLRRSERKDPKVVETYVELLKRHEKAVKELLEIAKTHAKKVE

T6: DHD127 chain b
T6 construct: also called DHD_127 b
T6 chain: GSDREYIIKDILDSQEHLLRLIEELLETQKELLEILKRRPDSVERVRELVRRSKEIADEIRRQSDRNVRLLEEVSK

T7: DHD17 chain b
T7 construct: Co-expressed input protein of the NOT gate; also called 8′
T7 chain: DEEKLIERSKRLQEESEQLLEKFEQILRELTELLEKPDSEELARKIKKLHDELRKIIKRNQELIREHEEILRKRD

B1: DHDSC_9-13-37 scaffold, chain 9a-13a-37a (designed binder)
chain: PKEEARELIRKQKELIKEQKKLIKEAKQKSDSRDAERIWKRSREINRESKKINKRIKELIKSGSEGSGSEGSGSTKEDILERQRKIIERAQEIHRRQQEILEELERIIRKPGSSEEAMKRMLKLLEESLRLLKELLELSEESAQLLYEQRGSEGSGSEGSGSDSDEHLKKLKTFLENLRRHLDRLDKHIKQLRDILSENPEDERVKDVIDLSERSVRIVKTVIKIFEDSVRKKE
B2: DHD37_1:234 chain a (designed binder)
chain: DSDEHLYKLKTFLENLRRHLDRLDKHIKQLRDILSENPEDERVKDAIDLSERSVRIVKTVIKIFEDSVRKKEKRPIDKRDDKELDKLLDTLEKILQTATKIIDDANKLLEYLRR
notes: Three-helix monomer of the backbone-permuted 3+1 heterodimer
B3: DHD13_XAAA chain a (designed binder)
chain: GTKEDILERQRKIIERAQEIHRRQQEILEELERIIRKPGSSEEAMKRMLKLLEESLRLLKELLELSEESAQLLYEQR
B4: DHD37_ABXB chain a (designed binder)
chain: DSDEHLKKLKTFLENLRRHLDRLDKHIKQLRDILSENPEDERVKDVIDLSERSVRIVKTVIKIFEDSVRKKE
notes: In Y2H it was fused to Gal4 AD or DBD
B5: DHD127 chain a (designed binder)
chain: GSPRSYLLKELADLSQHLVRLLERLVRESERVVEVLERGEVDEEELKRLEDLHRELEKAVREVRETHREIRERSR
notes: also called DHD_127 a
B6: DHD17 chain a (designed binder)
chain: DRKDLLKRNIKLLDRHLKILDTILKLLEKLSELLKKSSSEEVVKEYKKILDEIRKLLEESKEIHKESKEILERES
notes: In the NOT gate it was fused to both Gal4 AD and DBD; also called DHS 17 a
B7: DHD39 chain a (designed binder)
chain: DHSRKLEEILDRLRKHVKRLLEHLRELLSLVKENPEDKDLVEVLELSLAILRRSLEAVEAFLKSVTKKDPDDEDLRRKADEIRKEVEEIKKSLAEVEKEIYKLK
notes: also called 10; DHD_39 a
B8: DHD13_XAAA chain b (designed binder)
chain: GTEKRLLEEAERAHREQKEIIKKAQELHRRLEEIVRQSGSSEEAKKEAKKILEEIRELSKRSLELLREILYLSQEQKGSLVPR
notes: also called 9′
B9: DHD37_ABXB chain b (designed binder)
chain: GSDDKELDKLLDTLEKILQTATKIIDDANKLLEKLRRSERKDPKVVETYVELLKRHEKAVKELLEIAKTHAKKVE
notes: Used in Y2H as a co-expressed input or fused to Gal4 AD/DBD; also called 1′; 1′ (b)

Columns and labels:
DHD9 chain b = target: T1, DHD9 chain b; test: co-expression in E. coli, one b monomer His-tagged
DHDSC_9-13-37 chain 13b = target: T2, DHDSC_9-13-37 chain 13b; test: co-expression in E. coli, one b monomer His-tagged
DHD37_1:234 chain b = target: T3, DHD37_1:234 chain b; test: X-ray crystal structure of the heterodimer
Excerpt: (§2) The X-ray data sets were collected at the Advanced Light Source at Lawrence Berkeley National Laboratory with beamlines 8.2.1 and 8.2.2. Data sets were indexed and scaled using either XDS³³ or HKL2000³⁴. Initial models were generated by the molecular-replacement method with the program PHASER³⁵ within the Phenix™ software suite³⁶, using the design models as the initial search models. Efforts were made to reduce model bias through refinement with simulated annealing using Phenix.Refine™³⁷, or, if the resolution was sufficient, by using Phenix.Autobuild™³⁸ with rebuild-in-place set to false, simulated annealing and prime-and-switch phasing. Iterative rounds of manual building in COOT³⁹ and refinement in Phenix™ were used to produce the final models. […] RMSDs of bond lengths, angles and dihedrals from ideal geometries were calculated with Phenix™³⁶.

DHD13_XAAA chain b = target: B8; test: yeast two-hybrid competition by the co-expressed unfused monomer
DHD37_ABXB chain a = target: B4; test: individual yeast two-hybrid experiments
DHD39 chain b = target: T4, DHD39 chain b; test: individual yeast two-hybrid experiments
2′-1′_6-residue_linker [1] = target: T5, 2′-1′_6-residue_linker; test: thermodynamic model matched to native MS titration data
Excerpt: (§1) We studied the cooperativity of the induced dimerizer system in vitro using native mass spectrometry (FIG. 11F). […] We define cooperativity as the ratio of the affinities in the presence and absence of the other monomer, which in our model directly relates to the free energy of opening of the dimerizer (c=e^ΔG^ₒₚₑₙ^{/RT}, see supplementary materials).

2′-1′_6-residue_linker [2] = target: T5, 2′-1′_6-residue_linker; test: calculated from the cooperativity factor fitted to native MS data
Excerpt: as §1
We experimentally estimated K₁ using native MS experiments.

2′-1′_6-residue_linker [3] = target: T5, 2′-1′_6-residue_linker; test: native mass spectrometry, 10 µM of 1 and 1′-2′; bound from the detection limit of 0.0375 µM
DHD37_ABXB chain b = target: B9; test: individual yeast two-hybrid experiments
DHD127 chain b = target: T6, DHD127 chain b; test: X-ray crystal structure of the heterodimer
Excerpt: as §2

DHD17 chain b = target: T7, DHD17 chain b; test: yeast two-hybrid
yeast two-hybrid = target: the molecule itself; test: yeast two-hybrid

## B1
DHD9 chain b
  binding result: binds
DHDSC_9-13-37 chain 13b
  binding result: binds

## B2
DHD37_1:234 chain b
  binding result: binds

## B3
DHD13_XAAA chain b
  binding result: binds
DHD37_ABXB chain a
  binding result: binds
DHD39 chain b
  binding result: binds

## B4
2′-1′_6-residue_linker [1]
  cooperativity c (ratio of the affinities in the presence and absence of the other monomer): 991000
2′-1′_6-residue_linker [2]
  Kd: 9.91 mM
2′-1′_6-residue_linker [3]
  Kd: 2.65 mM
DHD37_ABXB chain b
  binding result: binds

## B5
DHD127 chain b
  binding result: binds

## B6
DHD17 chain b
  binding result: binds
Yeast two-hybrid
  binding result: binds

## B7
DHD39 chain b
  binding result: binds

## B8
DHD37_ABXB chain b
  binding result: binds

## B9
DHD39 chain b
  binding result: binds

— US20210355175A1 (University of Washington, published 2021)
